Experimental data from patent publication US20020150885.

Tests used:
[1] = biological target: T1, N-Ac-LEVD-N′-ethoxycarbonyl R110 SEQ ID NO:9
T1 chain: LEVD

[2] = biological target: T2, N-(Z-DEVD)-N′-acetyl-Rhodamine 110 SEQ ID NO:5
T2 chain: DEVD

[3] = biological target: T3, N-(Z-VD)-N′-acetyl-Rhodamine 110
T3 chain: VD

[4] = biological target: T4, N-Ac-DEVD-N′-hexyloxycarbonyl-R110 SEQ ID NO:5
T4 chain: DEVD

[5] = biological target: T5, N-Z-EVD-N′-ethoxycarbonyl-R110
T5 chain: EVD

[6] = biological target: T6, N-Ac-DEVD-N′-(ethylthio)carbonyl-R110 SEQ ID NO:5
T6 chain: DEVD

[7] = biological target: T7, N-Ac-DEVD-N′-ethoxycarbonyl-R110 SEQ ID NO:5
T7 chain: DEVD

[8] = biological target: T8, N-Z-VD-N′-ethoxycarbonyl-R110
T8 chain: VD

[9] = biological target: T9, N-Ac-DEVD-N′-octyloxycarbonyl-R110 SEQ ID NO:5
T9 chain: DEVD

[10] = biological target: T10, N-Z-DEVD-N′-ethoxycarbonyl-R110 SEQ ID NO:5
T10 chain: DEVD

[11] = biological target: T11, (Z-YVAD)2-Rhodamine 110 SEQ ID NO:2
T11 chain: YVAD

[12] = biological target: T12, (Z-VAD)2-Rhodamine 110
T12 chain: VAD

[13] = biological target: T13, N-(Z-YVAD)-N′-acetyl-Rhodamine 110 SEQ ID NO:2
T13 chain: YVAD

[14] = biological target: T14, N-(Z-VAD)-N′-acetyl-Rhodamine 110
T14 chain: VAD

B1: recombinant human caspase-6 (protein)
chain: AFYKREMFDPAEKYKMDHRRRGIALIFNHERFFWHLTLPERRGTCADRDNLTRRFSDLGFEVKCFNDLKAEELLLKIHEVSTVSHADADCFVCVFLSHGEGNHIYAYDAKIEIQTLTGLFKGDKCHSLVGKPKIFIIQACRGNQHDVPVIPLDVVDNQTEKLDTNITEVDAASVYTLPAGADFLMCYSVAEGYYSHRETVNGSWYIQDLCEMLGKYGSSLEFTELLTLVNRKVSQRRVDFCKDPSAIGKKQVPCFASMLTKKLHFFPKSN
Q: B1 was tested. Which “signal to background ratio (fluorescence of cleaved substrate)” value [1] did it give?
A: signal to background ratios of about 13 for caspase-6 to about 26 for caspase-8

B2: Recombinant CPP32 protein (protein)
chain: SGISLDNSYKMDYPEMGLCIIINNKNFHKSTGMTSRSGTDVDAANLRETFRNLKYEVRNKNDLTREEIVELMRDVSKEDHSKRSSFVCVLLSHGEEGIIFGTNGPVDLKKITNFFRGDRCRSLTGKPKLFIIQACRGTELDCGIETDSGVDDDMACHKIPVEADFLYAYSTAPGYYSWRNSKDGSWFIQSLCAMLKQYADKLEFMHILTRVNRKVATEFESFSFDATFHAKKQIPCIVSMLTKELYFYH
Q: B2 was tested. Which Km [2] did it give?
A: 154 µM

Q: What about the Vmax [2] of the same protein?
A: 160 nmol/min

Q: What about the Km [3] of the same protein?
A: 60 µM

B3: recombinant human caspase-3 (protein)
chain: SGISLDNSYKMDYPEMGLCIIINNKNFHKSTGMTSRSGTDVDAANLRETFRNLKYEVRNKNDLTREEIVELMRDVSKEDHSKRSSFVCVLLSHGEEGIIFGTNGPVDLKKITNFFRGDRCRSLTGKPKLFIIQACRGTELDCGIETDSGVDDDMACHKIPVEADFLYAYSTAPGYYSWRNSKDGSWFIQSLCAMLKQYADKLEFMHILTRVNRKVATEFESFSFDATFHAKKQIPCIVSMLTKELYFYH
Q: Which results are given for B3?
A: Cleavage by Caspase-3 [4]: Good; Cleavage by Caspase-3 [5]: Fair; signal above the enzyme blank value (fluorescence of cleaved substrate) [1]: a signal that was about 5-fold above the enzyme blank value; Cleavage by Caspase-3 [6]: Good; Cleavage by Caspase-3 [7]: Good; Cleavage by Caspase-3 [8]: Poor; amount of enzyme needed for cleavage, against tri- and tetrapeptide substrates [8]: a 50-fold greater amount of enzyme than needed for tri- and tetrapeptide substrates; Cleavage by Caspase-3 [9]: Good; Cleavage by Caspase-3 [10]: Good

B4: recombinant human caspase-7 (protein)
chain: AKPDRSSFVPSLFSKKKKNVTMRSIKTTRDRVPTYQYNMNFEKLGKCIIINNKNFDKVTGMGVRNGTDKDAEALFKCFRSLGFDVIVYNDCSCAKMQDLLKKASEEDHTNAACFACILLSHGEENVIYGKDGVTPIKDLTAHFRGDRCKTLLEKPKLFFIQACRGTELDDGIQADSGPINDTDANPRYKIPVEADFLFAYSTVPGYYSWRSPGRGSWFVQALCSILEEHGKDLEIMQILTRVNDRVARHFESQSDDPHFHEKKQIPCVVSMLTKELYFSQ
Q: With B4 as the protein, how does the “fluorescent signal of cleaved substrate” value [1] read?
A: Caspase-7 gave virtually no signal

B5: recombinant human caspase-8 (protein)
chain: SESQTLDKVYQMKSKPRGYCLIINNHNFAKAREKVPKLHSIRDRNGTHLDAGALTTTFEELHFEIKPHDDCTVEQIYEILKIYQLMDHSNMDCFICCILSHGDKGIIYGTDGQEAPIYELTSQFTGLKCPSLAGKPKVFFIQACQGDNYQKGIPVETDSEEQPYLEMDLSSPQTRYIPDEADFLLGMATVNNCVSYRNPAEGTWYIQSLCQSLRERCPRGDDILTILTEVNYEVSNKDDKKNMGKQMPQPTFTLRKKLVFPSD
Q: B5 was tested. Which “signal to background ratio (fluorescence of cleaved substrate)” value [1] did it give?
A: signal to background ratios of about 13 for caspase-6 to about 26 for caspase-8

B6: Recombinant ICE protein (protein)
chain: NPAMPTSSGSEGNVKLCSLEEAQRIWKQKSAEIYPIMDKSSRTRLALIICNEEFDSIPRRTGAEVDITGMTMLLQNLGYSVDVKKNLTASDMTTELEAFAHRPEHKTSDSTFLVFMSHGIREGICGKKHSEQVPDILQLNAIFNMLNTKNCPSLKDKPKVIIIQACRGDSPGVVWFKDSVGVSGNLSLPTTEEFEDDAIKKAHIEKDFIAFCSSTPDNVSWRHPTMGSVFIGRLIEHMQEYACSCDVEEIFRKVRFSFEQPDGRAQMPTTERVTLTRCFYLFPGH
Q: With B6 as the protein, how does the Km [11] read?
A: 6 µM

Q: What about the Vmax [11] of the same protein?
A: 14 nmol/min

Q: And the Km [2]?
A: 12 µM

Q: And the Vmax [2]?
A: 9 nmol/min

Q: What about the Km [12] of the same protein?
A: 21 µM

Q: What about the Vmax [12] of the same protein?
A: 9 nmol/min

Q: And the Km [13]?
A: 32 µM

Q: And the Vmax [13]?
A: 96 nmol/min

Q: What about the Km [14] of the same protein?
A: 70 µM

Q: What about the Vmax [14] of the same protein?
A: 4 nmol/min
